From patent CN102050877A (NAT ENGINEERING RES CT OF ANTIBODY MEDICINE SHANGHAI CO LTD, dated 2011)

Target: T1, 人CD20 (on Raji cells) (human, UniProt P11836 1-297)
T1 construct: whole, on cells; No recombinant CD20 was used; also called Raja
T1 sequence (looked up): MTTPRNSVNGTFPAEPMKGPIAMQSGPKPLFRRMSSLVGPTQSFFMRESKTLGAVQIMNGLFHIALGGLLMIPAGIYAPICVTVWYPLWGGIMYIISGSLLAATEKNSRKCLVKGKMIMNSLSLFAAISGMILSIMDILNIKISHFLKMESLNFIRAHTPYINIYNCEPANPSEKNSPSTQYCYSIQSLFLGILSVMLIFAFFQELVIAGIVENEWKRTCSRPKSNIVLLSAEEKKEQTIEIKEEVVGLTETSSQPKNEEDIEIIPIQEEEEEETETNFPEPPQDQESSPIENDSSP
Assay: in vitro antigen binding on Raji cells (flow cytometry)

B1: 抗人CD20人源化抗体hu8E4 (hu8E4Hb/hu8E4Lb) (antibody, human IgG1, kappa, V domains shown)
VH: EVQLVESGGGLVQPGGSLRLSCAASGFTFTSYNMHWVRQAPGKGLEWIGAIYPENGDTSYNQKFKDRATLTADKSKNTAYLQMNSLRAEDTAVYYCARWHYYGNGGALDYWGQGTLVTVSS
VL: DIQMTQSPSSLSASVGDRVTITCRASGNIHNYLAWYQQKPGKAPKLLVHNAKTLPDGVPSRFSGSGSGTDFTLTISSLQPEDFATYYCQQFWSNPWTFGQGTKVEIKR
notes: LCDR1 RASGNIHNYLA, LCDR2 NAKTLPD, LCDR3 QQFWSNPWT; The expression constructs carried signal peptides; also called hu8E4VHb/hu8E4VLb
**Q.** Does B1 bind?
**A.** binds
